Measurements as given in the supplement of paper PMC12042874.
± gives the uncertainty stated by the source.

Assay: amyloid nucleation score (Sup35N fusion, yeast selection) (log enrichment); library NNK1; higher = more nucleation; inactive = no reads after selection
In short: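 Nucleation score: DiMSum log enrichment of output over input reads, centred on the mode score of non-aggregating sequences. Only sequences with at least 100 input reads were kept. Reads came from Illumina sequencing of plasmid inserts before and after 7 days of growth at 30°C without adenine and uracil, in psi-negative yeast expressing Sup35N fused to peptides of 20 random codons after 24 hours of induction with 100 μM copper sulfate.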

Substance | amyloid nucleation score
LLVESKAYGWHVMRGQTWTR | -0.045 ± 0.42
TWNNKFRPLVEHGYSAS | -0.526 ± 0.85
CMRMRMFSKVVGSLWWESGY | 0.054 ± 0.39
DIAHC | -0.464 ± 0.59
CYYSRFHFAPISIMFCVNGG | 5.99 ± 0.076
DSKPVIILR | -0.516 ± 0.27
SSLPRYNPR | inactive
SQQVHISNVHVLYLRWWTGC | 0.696 ± 0.74
SCPAGFCCAGANKYHVLGV | -0.137 ± 0.56
SGNCSVSW | 0.755 ± 0.97
GVVTLFTEYSSEPCRCGFRQ | -0.21 ± 0.53
QRLLTYPLLYVTSNVLRFYR | -0.001 ± 0.7
LLSTHVMQVLPMNQAKNILK | -0.935 ± 0.29
GIKFNWENLARVLESNVFF | 1.53 ± 0.46
YVVGARNEVRGYRVGTRLIR | 0.155 ± 1.5
NGHSVASSVDAVMLCRYRGK | 0.688 ± 0.69
WDKWI | 0.418 ± 0.49
CQNFDDI | 0.117 ± 0.9
RRYRVLANISS | 0.66 ± 0.49
SLKVTAPTQMGQCVVGGVYH | -0.279 ± 0.88
NTDSLLFNLISLMRNRERFK | 0.351 ± 0.54
GKMLFRGSGIRPCGALIGVK | -0.561 ± 1.1
KKMRGTFIRFIYRLFFLRYA | 0.656 ± 0.5
AIVSGRTFDKPNMKRCL | -1.44 ± 0.69
TYVSNNPKGNPTLHAYFSF | 0.68 ± 0.97

Substance | amyloid nucleation score
LDLGEV | 0.025 ± 0.36
GTYFSGIVVVFLVGVLAR | -0.207 ± 0.49
RNLWGCMIWGMRG | 1.83 ± 0.36
TTTNCRI | 0.057 ± 0.23
TFPGSHLFTFLMMEGSLNHG | 0.694 ± 0.64
FQLRNL | 0.414 ± 0.34
MSLNRDNDYSKLLFGSKVSQ | 0.477 ± 0.43
SSIALYFGWLGSIR | 0.294 ± 0.85
HGLAYCGRQLFGARFILRYR | 0.255 ± 0.23
GGLCTLVVAVGDSWIDRR | -0.34 ± 0.43
YMCTLRGGGSDCTWAYPKWG | 0.275 ± 0.48
VLYIGYYCQKSMEVLVTRSR | 1.06 ± 0.69
RSTISGWR | inactive
SCILS | inactive
IGHVNTYCCIADWSWVRGAG | 8.895 ± 0.044
VVSMSQEVEAPRAPHMAAFK | 0.25 ± 0.53
LGIVSCTSQNPNGVDTSIFG | 0.117 ± 1.4
NGYEMVQVLTSFMAAMGVFW | 0.256 ± 0.84
DQFCDMPTWVLVMYKSRDFL | 0.862 ± 0.55
MFDTRDRMAALTFVKRMWCK | inactive
VITNHDDE | 0.51 ± 0.47
DLDRDAKLS | -1.43 ± 0.7
LFFRIYDHCNEHEKCVV | inactive
TYWNVLNAVGQALPSIYGIG | 0.955 ± 0.63
SAKGIME | 1.03 ± 0.45

Substance | amyloid nucleation score
WMTHWVLSYTTNLLIWVHGW | 0.005 ± 1.2
ILRCRGNALNAYWRGSFNR | 4.59 ± 0.078
QWVSMTEVYFVVNKRWMCSR | -1.39 ± 1.6
MGLFFERSVKCSLF | -0.946 ± 1.1
PYSLQSTLHVRER | 0.485 ± 0.35
SALRTCKFN | 0.826 ± 0.56
SSYMLWFAIFVRNLNPLVFW | -0.871 ± 0.37
CRVLWQWNSKLGCFAAALNL | -0.326 ± 0.63
VPYQCDKTKHFVRKVLILGA | 1.81 ± 0.58
RTSVLVSASALPNSLSFRQG | -0.647 ± 1.1
AGDLGPREQGR | 0.171 ± 1.2
VKLDIVFLMVFGPLCSESPF | 1.83 ± 0.24
DSMSRREQG | -0.437 ± 0.73
QNTSEYSLRRERSR | -0.341 ± 0.5
CRMGFNQLWLKLRNRCVGLG | -0.008 ± 0.36
VSYFVHIC | 0.145 ± 0.56
RTDFLMFIGCVMNKICTLKA | 0.73 ± 0.33
SAGSVADRGCLFSLRRASKC | 0.851 ± 0.78
RLRNLYLQSFDRLCAVCKGY | 0.197 ± 0.35
EDNRKIRRVMSIQS | 0.063 ± 0.57
SKSYLVFDNISRRH | -1.11 ± 0.7
NNFSSNWWLELWYRYFVYPI | 0.666 ± 0.75
FFYSNALLWSWIVGYSCTRL | 0.537 ± 0.44
GMCPLNRNGGFGNGVVEGVV | 0.166 ± 1.6
SSDSLYTYDMDWAWAGTP | 0.281 ± 0.38

Substance | amyloid nucleation score
FSMVAPTVILLKYYN | -0.111 ± 0.21
FLPGQNAIFKTLLVCSTVKV | -0.675 ± 1.2
QYTYFMSGDWSNGRVSLVKK | 2.96 ± 0.099
LFMFRLKYVIHWDIG | 0.911 ± 0.54
VSPMWVGYSRTSKLW | 0.036 ± 0.26
NVNCNRYSWMGDHSCEGRQP | -0.128 ± 0.57
WGMIWCTIYGSVSNNNINLV | 4.2 ± 0.053
VSLRAAWNLC | 0.606 ± 0.71
SVAFWSVCRVLGTDADMDRI | -0.254 ± 0.58
TYSRARAQSIMFVRLFKACL | 0.643 ± 0.34
HQELMSFFLLCLH | inactive
RRGGDSMDYNCFSARSRAFM | -0.146 ± 0.71
YHVSLLSI | 0.169 ± 0.65
FFHFTVSGMPGYSRSY | 2.73 ± 0.17
DCYSRNVDLYGCGDDGDILL | -0.031 ± 0.25
SPPSSNIFPCI | 0.052 ± 0.69
MTIQVTIGNYLGLVYFFPLS | 1.05 ± 0.97
SCNYWCERVQGNSLWVGWVH | -0.126 ± 0.35
GPDINSCRSCFSWYIVWFLV | 0.318 ± 0.7
IFSNQSATLGLSVSSWIYLE | -0.983 ± 0.4
MDQFDLGSYSCASFQDTPAL | 1.39 ± 0.18
GLSWGIFALDTRSPGILRSV | -0.436 ± 0.35
ILICKSVRVQYTLSKLW | 1.8 ± 0.17
VKKLQVA | 1.11 ± 0.74
HYSTEEGRVCGSVKQQKAWL | -0.296 ± 0.52

Substance | amyloid nucleation score
DYFIKWFIYRPLTS | -0.504 ± 0.6
FQGRNYECIFVDFLRSQKGV | 0.292 ± 1.2
LELDRFDNFRYGSAPRCYLP | inactive
NSGNICSVGCGL | 3.09 ± 0.2
CDIVNKSTGGLSTRALKIVY | 0.051 ± 0.69
HHSYKYCKLAFWTRSSKWNR | 0.7 ± 0.71
LSSYGYHMRVDHVTNANPSR | 0.159 ± 0.43
FLACGYMFGFRQSYHRPFRF | 3.35 ± 0.095
SYPFWYSHMIHCYRFAIFGL | -2.73 ± 2.4
ACNTSSIYALTFVCHLSVGV | 4.67 ± 0.057
WDAHGDIVKG | 0.877 ± 1
VMHLWLVYCHTTVS | 0.755 ± 0.73
WLSGYKSQMVK | -0.291 ± 0.78
KRRVSLCMPWVGSDRRVFMG | 0.377 ± 0.31
LIKYFNINYNGCSAVPWGSP | 5.981 ± 0.056
YARWVGVSKVRNTQICNSMR | -0.543 ± 0.79
IYFGSCSRLWPHHVNT | 0.436 ± 0.73
CLTIGCWRFSF | 4.57 ± 0.093
FSCYM | 0.245 ± 0.9
KSGDMWW | 0.087 ± 0.37
RRSQGAYLLNDGVRGIL | -0.057 ± 0.28
LWFNSDLIE | -0.369 ± 0.35
CLSSALLHLFRRNRIISVVT | 0.193 ± 0.39
VYFGRISLWLNMH | -0.449 ± 0.59
VRLNQLDNSLAVRSATNPGA | 0.524 ± 0.65

Substance | amyloid nucleation score
LSPGRYFDSPL | 0.589 ± 0.77
SGMCNIQPQTCQ | -0.351 ± 0.39
ERQLKEEY | 0.06 ± 0.33
RLAFLIDRWVALRNEWRKGV | -0.791 ± 0.72
VQISQETFYNWLFVPAVSVP | -0.282 ± 0.38
PMTPTCPLTNASTCPSTDRR | -0.644 ± 0.74
LLWTSNIIYMSFAVRNKSVR | 0.59 ± 0.32
RMCLDGPITWFDRHK | 2.16 ± 0.15
FGLKYRSDGVPCPDYLARKY | 0.702 ± 0.51
VFYLCFTSQYYLSAGTVNAW | 4.99 ± 0.064
AAWMWWTLLSTY | -0.377 ± 0.37
STLSVLLSWQN | 0.01 ± 0.41
CPGFD | 0.595 ± 0.64
CRNTLPGP | -0.398 ± 0.44
HKDVQGYVD | 1.01 ± 0.97
VLLGELIL | 0.434 ± 0.56
AVVDRDMHYASTCSGGVGCH | -0.186 ± 0.96
RKCWGSKEGVKKT | -0.62 ± 0.39
GTRVR | 1.51 ± 0.48
TLIGFWPTRSFSSAVRYNPN | -0.116 ± 1
ATSKRIQWLMRERAPPTRYP | 0.203 ± 1.5
KVIRLIFRGY | 0.871 ± 0.64
SFSRFVVMMKGIRAGKSSHT | 0.156 ± 0.72
AELVQFSCLKLSFKSSENPS | 3.06 ± 0.21
CCSRGLKVPDANRASKSGCE | 1.08 ± 0.52

Substance | amyloid nucleation score
LDILMGGGHTEDCTLPGHLS | 0.307 ± 0.36
RLVLILSYYVRWNWGREDN | inactive
SNFGIIYM | inactive
RSGNVAQEMSMHPTWYEWS | 0.954 ± 0.31
SCSWFFTYIVVAVNTLSISY | -0.444 ± 0.75
EIQGNLNILSLLGLSRRSKG | 0.016 ± 0.72
VGVHRHSSWWEFAYCASRQ | -0.537 ± 0.71
FTSRRATCDIGNSMNACFER | 1.5 ± 0.73
RESGMTMHVVPQPLDTKTWC | 0.612 ± 0.72
PYYFEGGEAQTPRHSDGQWM | -0.769 ± 0.56
MLRFRCVRQP | 0.102 ± 0.35
KLLWSPYSGCVVYNIKVKGR | 3.67 ± 0.13
RERIECDWTGLAFGDPKVSV | -0.646 ± 2.1
WTFGLGSGVSGVSLERGPLG | -0.622 ± 1.7
WRQWKTLTARLTAMKA | -0.178 ± 0.33
VLLRKVKRLNRYHMSTGGL | inactive
PGVPPPKRA | 0.294 ± 0.66
CSKFLVVVSVYFLVYSVEHM | -0.94 ± 1.6
LPFMHYYHSGY | -0.814 ± 1.4
ISSLESRTTMRVV | 0.377 ± 0.5
YTSKSMRGFSKKSLFDMTFK | 0.126 ± 0.79
TVRGSAFLIKWKLI | -0.86 ± 0.9
YGVCT | 0.49 ± 0.22
SCTLYYTSGSIMYAVMVLQE | 0.526 ± 0.49
